# In article PMC9110341, “A nucleotide-sensing oligomerization mechanism that controls NrdR-dependent transcription of ribonucleotide reductases” (Nature Communications, 2022):
# Where “and” joins values, the source holds several entries; their conditions need not be identical. Equal values may be shown once.
# How the values were obtained:
# [1] = biological target: NrdRΔNΔC, truncated S. coelicolor NrdR lacking both N- and C-terminal domains (Streptomyces coelicolor) (UniProt O69980); test: SEC; analytical SEC, Superdex 200 PC 3.2/30, 7 °C; 50 mM Tris-HCl pH 8.5, 50 mM KCl, 10 mM MgCl2, 0.5 mM TCEP, nucleotides in sample and buffer; 64 µM NrdR samples
# [2] = biological target: T1, NrdR (Streptomyces coelicolor, UniProt O69980); test: isothermal titration calorimetry, one set of sites; assay type: binding
# T1 construct: full-length wild type, C-terminal His tag (pET30a(+)::nrdR), E. coli BL21(DE3); apo dimer 44 kDa, dodecamer with ATP, octamer/tetramer with dATP + ATP
# [3] = biological target: T1, NrdR; test: isothermal titration calorimetry, one set of sites; assay type: binding; conditions: 10 mM MgCl2, 50 mM Tris-HCl pH 8, 300 mM NaCl, 10% glycerol, 1 mM TCEP; 20 and 10 °C (which one not told)
# [4] = biological target: T2, NrdR R17A (Streptomyces coelicolor M145, UniProt O69980 1-182, R17A); test: MST; 1 mM dATP + 1 mM ATP; MST: 25 mM Tris-HCl pH 7.6, 150 mM NaCl, 10 mM MgCl2, 5% glycerol, 1 mM DTT, 0.05% Tween-20, nucleotides 1 mM each, 10 nM Cy5-dsDNA, room temperature; conditions: protein: recombinant; tags: C-terminal His6 (pET30a); label: 5'-Cy5 on sense strand; blunt
# T2 sequence: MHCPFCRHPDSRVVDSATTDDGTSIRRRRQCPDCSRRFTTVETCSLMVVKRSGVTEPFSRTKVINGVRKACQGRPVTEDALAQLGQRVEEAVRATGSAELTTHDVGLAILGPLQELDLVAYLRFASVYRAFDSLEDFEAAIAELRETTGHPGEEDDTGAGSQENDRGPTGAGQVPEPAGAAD
# [5] = biological target: T3, NrdR D15A (Streptomyces coelicolor M145, UniProt O69980 1-182, D15A); test: as above; conditions: protein: recombinant; tags: C-terminal His6 (pET30a); label: 5'-Cy5 on sense strand; blunt
# T3 sequence: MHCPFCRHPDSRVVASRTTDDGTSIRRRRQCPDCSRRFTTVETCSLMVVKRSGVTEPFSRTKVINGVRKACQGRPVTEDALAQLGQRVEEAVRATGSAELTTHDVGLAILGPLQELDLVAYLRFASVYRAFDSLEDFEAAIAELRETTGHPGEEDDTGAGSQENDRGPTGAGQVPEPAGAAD
# [6] = biological target: T4, NrdR (Streptomyces coelicolor M145, UniProt O69980 1-182); test: MST; MST: 25 mM Tris-HCl pH 7.6, 150 mM NaCl, 10 mM MgCl2, 5% glycerol, 1 mM DTT, 0.05% Tween-20, nucleotides 1 mM each, 10 nM Cy5-dsDNA, room temperature; conditions: protein: recombinant; tags: C-terminal His6 (pET30a); chain copies: 4; label: 5'-Cy5 on sense strand; blunt
# T4 sequence: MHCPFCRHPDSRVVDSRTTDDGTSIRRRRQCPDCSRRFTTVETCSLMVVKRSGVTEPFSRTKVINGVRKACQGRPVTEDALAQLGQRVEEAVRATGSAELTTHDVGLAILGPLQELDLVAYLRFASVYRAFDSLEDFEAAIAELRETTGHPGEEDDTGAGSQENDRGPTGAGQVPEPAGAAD
# [7] = biological target: the molecule itself; test: GEMMA (gas-phase electrophoretic mobility molecular analysis); with 50 µM dAMP and equimolar Mg acetate; 0.08 mg/ml; 100 mM ammonium acetate pH 7.3, 0.005% Tween-20
# [8] = biological target: the molecule itself; test: GEMMA (gas-phase electrophoretic mobility molecular analysis); with dATP + ATP (50 µM nucleotide) and equimolar Mg acetate; 0.08 and 0.16 mg/ml; 100 mM ammonium acetate pH 7.3, 0.005% Tween-20
# [9] = biological target: the molecule itself; test: cryo-EM structure; ATP-loaded NrdR; 1 mM ATP and 10 mM MgCl2 added to apo-protein, SEC in 50 mM Tris-HCl pH 8.0, 150 mM NaCl, 10 mM MgCl2, 1 mM TCEP, 0.5 mM ATP; 0.4 mg/ml (19 µM monomer) on grids
# [10] = biological target: T4, NrdR; test: MST; 1 mM dATP + 1 mM ATP, 10 mM Mg2+; MST: 25 mM Tris-HCl pH 7.6, 150 mM NaCl, 10 mM MgCl2, 5% glycerol, 1 mM DTT, 0.05% Tween-20, nucleotides 1 mM each, 10 nM Cy5-dsDNA, room temperature; conditions: protein: recombinant; tags: C-terminal His6 (pET30a); chain copies: 4; label: 5'-Cy5 on sense strand; blunt
# [11] = biological target: T4, NrdR; test: MST; 1 mM dATP + 1 mM ADP, 10 mM Mg2+; MST: 25 mM Tris-HCl pH 7.6, 150 mM NaCl, 10 mM MgCl2, 5% glycerol, 1 mM DTT, 0.05% Tween-20, nucleotides 1 mM each, 10 nM Cy5-dsDNA, room temperature; conditions: protein: recombinant; tags: C-terminal His6 (pET30a); chain copies: 4; label: 5'-Cy5 on sense strand; blunt
# [12] = biological target: T5, NrdR D15A/R17A (Streptomyces coelicolor M145, UniProt O69980 1-182, D15A;R17A); test: MST; 1 mM dATP + 1 mM ATP; MST: 25 mM Tris-HCl pH 7.6, 150 mM NaCl, 10 mM MgCl2, 5% glycerol, 1 mM DTT, 0.05% Tween-20, nucleotides 1 mM each, 10 nM Cy5-dsDNA, room temperature; conditions: protein: recombinant; tags: C-terminal His6 (pET30a); label: 5'-Cy5 on sense strand; blunt
# T5 sequence: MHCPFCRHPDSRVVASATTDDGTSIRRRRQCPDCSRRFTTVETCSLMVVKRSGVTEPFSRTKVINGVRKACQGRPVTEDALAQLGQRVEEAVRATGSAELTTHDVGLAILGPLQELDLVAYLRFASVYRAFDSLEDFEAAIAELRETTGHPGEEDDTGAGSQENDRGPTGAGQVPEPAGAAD
# [13] = biological target: T4, NrdR; test: as above; conditions: protein: recombinant; tags: C-terminal His6 (pET30a); chain copies: 4; label: 5'-Cy5 on sense strand; blunt
molecule,measurement,setting,value
"NrdRΔNΔC, truncated S. coelicolor NrdR lacking both N- and C-terminal domains (from UniProt O69980 1-182) (domain or fragment)",stoichiometry N,[1],2
Nc1ncnc2c1ncn2[C@H]1C[C@H](O)[C@@H](COP(=O)(O)OP(=O)(O)O)O1 [dADP],Kd,[2],400 nM
Nc1ncnc2c1ncn2[C@H]1C[C@H](O)[C@@H](COP(=O)(O)O)O1 [dAMP],KD,[3],"AMP, dAMP, and di-cyclic AMP were comparable to ATP in binding strengths"
Nc1ncnc2c1ncn2[C@H]1C[C@H](O)[C@@H](COP(=O)(O)OP(=O)(O)OP(=O)(O)O)O1 [dATP],Kd,[2],1000 nM
Nc1ncnc2c1ncn2[C@@H]1O[C@H](COP(=O)(O)OP(=O)(O)O)[C@@H](O)[C@H]1O [ADP],Kd,[2],600 nM
Nc1ncnc2c1ncn2[C@@H]1O[C@H](COP(=O)(O)O)[C@@H](O)[C@H]1O [AMP],KD,[3],"AMP, dAMP, and di-cyclic AMP were comparable to ATP in binding strengths"
Nc1ncnc2c1ncn2[C@@H]1O[C@H](COP(=O)(O)OP(=O)(O)OP(=O)(O)O)[C@@H](O)[C@H]1O [ATP],Kd,[2],4000 nM
Nc1ncnc2c1ncn2[C@@H]1O[C@@H]2COP(=O)(O)O[C@H]3[C@@H](O)[C@H](n4cnc5c(N)ncnc54)O[C@@H]3COP(=O)(O)O[C@H]2[C@H]1O [cyclic di-AMP],KD,[3],"AMP, dAMP, and di-cyclic AMP were comparable to ATP in binding strengths"
cydA promoter 57 bp (dsDNA) DNA 1: GTAGGTCATAATTGCTTGTGAATGTGAACGCGTTCACAAGCGTGTCCCGATTGCGCC DNA 2: GGCGCAATCGGGACACGCTTGTGAACGCGTTCACATTCACAAGCAATTATGACCTAC,binding result,[4],no binding
same,Kd,[5],2600 ± 300 nM
same,binding result,[6],no binding
"Streptomyces coelicolor NrdR (wild type) (natural protein, RNR-specific transcriptional repressor NrdR of Streptomyces coelicolor strain M145; the nrdR gene cloned into pET30a(+), wild type; N-terminal Zn-ribbon domain followed by an ATP-cone domain and a C-terminal part; the wild-type nrdR gene was amplified, so probably the whole protein; Holds about 0.78 mol Zn per mol protein; also called apo-NrdR; ATP-loaded NrdR) MHCPFCRHPDSRVVDSRTTDDGTSIRRRRQCPDCSRRFTTVETCSLMVVKRSGVTEPFSRTKVINGVRKACQGRPVTEDALAQLGQRVEEAVRATGSAELTTHDVGLAILGPLQELDLVAYLRFASVYRAFDSLEDFEAAIAELRETTGHPGEEDDTGAGSQENDRGPTGAGQVPEPAGAAD",stoichiometry N,[7],2
same,stoichiometry N,[8],8 and 4
same,stoichiometry N,[9],12
nrdAB promoter 57 bp (dsDNA) DNA 1: CCGGGACACAACATCTGGGGGTGCTCGCGTCCCCCGGCACAAGATGTATGCTCATGC DNA 2: GCATGAGCATACATCTTGTGCCGGGGGACGCGAGCACCCCCAGATGTTGTGTCCCGG,Kd,[10],142 ± 31 nM
same,Kd,[11],159 ± 22 nM
nrdRJ promoter 57 bp (dsDNA) DNA 1: GCCAATCCCCACATCTAGTGGTTGGATAGCGTGAGCAGCCCACAAGTTGTGGTCCCC DNA 2: GGGGACCACAACTTGTGGGCTGCTCACGCTATCCAACCACTAGATGTGGGGATTGGC,Kd,[10],51 ± 11 nM
same,Kd,[11],68 ± 16 nM
same,binding result,[4],no binding
same,binding result,[12],no binding
same,binding result,[5],binds
nrdRJ G9/C18 (dsDNA) DNA 1: GCCAATCCGCACATCTACTGGTTGGATAGCGTGAGCAGCCCACAAGTTGTGGTCCCC DNA 2: GGGGACCACAACTTGTGGGCTGCTCACGCTATCCAACCAGTAGATGTGCGGATTGGC,binding result,[4],no binding
same,fold decrease in affinity vs wild-type DNA,[13],~50 fold lower affinity than wild-type DNA
nrdRJ T9/T18/T40/T49 (dsDNA) DNA 1: GCCAATCCTCACATCTATTGGTTGGATAGCGTGAGCAGCTCACAAGTTTTGGTCCCC DNA 2: GGGGACCAAAACTTGTGAGCTGCTCACGCTATCCAACCAATAGATGTGAGGATTGGC,binding result,[4],no binding
nrdRJ C18/C49 (dsDNA) DNA 1: GCCAATCCCCACATCTACTGGTTGGATAGCGTGAGCAGCCCACAAGTTCTGGTCCCC DNA 2: GGGGACCAGAACTTGTGGGCTGCTCACGCTATCCAACCAGTAGATGTGGGGATTGGC,binding result,[4],no binding
same,fold decrease in affinity vs wild-type DNA,[13],~60 fold lower affinity than wild-type DNA
